Reference: article PMC7340257, “Crystal structure and interaction studies of human DHTKD1 provide insight into a mitochondrial megacomplex in lysine catabolism” (IUCrJ, 2020)

Biological target: the molecule itself
Assay: SEC; analytical gel filtration of hDHTKD1_(45–919) WT and p.R715C alone; 20 mM HEPES pH 7.5, 150 mM NaCl, 0.5 mM TCEP

B1: human DHTKD1 residues 45-919, p.R715C variant, His-tagged (enzyme, UniProt Q96HY7 45-919, looked up)
chain: GALERPPVDHGLARLVTVYCEHGHKAAKINPLFTGQALLENVPEIQALVQTLQGPFHTAGLLNMGKEEASLEEVLVYLNQIYCGQISIETSQLQSQDEKDWFAKRFEELQKETFTTEERKHLSKLMLESQEFDHFLATKFSTVKRYGGEGAESMMGFFHELLKMSAYSGITDVIIGMPHRGRLNLLTGLLQFPPELMFRKMRGLSEFPENFSATGDVLSHLTSSVDLYFGAHHPLHVTMLPNPSHLEAVNPVAVGKTRGRQQSRQDGDYSPDNSAQPGDRVICLQVHGDASFCGQGIVPETFTLSNLPHFRIGGSVHLIVNNQLGYTTPAERGRSSLYCSDIGKLVGCAIIHVNGDSPEEVVRATRLAFEYQRQFRKDVIIDLLCYRQWGHNELDEPFYTNPIMYKIIRARKSIPDTYAEHLIAGGLMTQEEVSEIKSSYYAKLNDHLNNMAHYRPPALNLQAHWQGLAQPEAQITTWSTGVPLDLLRFVGMKSVEVPRELQMHSHLLKTHVQSRMEKMMDGIKLDWATAEALALGSLLAQGFNVRLSGQDVGRGTFSQRHAIVVCQETDDTYIPLNHMDPNQKGFLEVSNSPLSEEAVLGFEYGMSIESPKLLPLWEAQFGDFFNGAQIIFDTFISGGEAKWLLQSGIVILLPHGYDGAGPDHSSCRIECFLQMCDSAEEGVDGDTVNMFVVHPTTPAQYFHLLRRQMVRNFRKPLIVASPKMLLRLPAAVSTLQEMAPGTTFNPVIGDSSVDPKKVKTLVFCSGKHFYSLVKQRESLGAKKHDFAIIRVEELCPFPLDSLQQEMSKYKHVKDHIWSQEEPQNMGPWSFVSPRFEKQLACKLRLVGRPPLPVPAVGIGTVHLHQHEDILAKTFA
notes: PDB 6sy1 is the wild-type parent of the same limits; source: E. coli BL21(DE3)R3-Rosetta, purified
  binding result: binds
